Results reported in the supplement of paper PMC10567573.

B1: ATL3 (parent)
chain: QELEEEIKELYENFCKHNGSKNVF

Variants of: B1
Experiment: protein stability index of a GFP-peptide fusion (GPS, HEK-293T) (PSI 1-6); higher = more stable
Settings: c terminus: a fixed tail appended
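Further: lentivirally expressed fusions sorted by FACS into six bins by GFP to DsRed ratio, PSI derived from sequencing read proportions per bin multiplied by bin number.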

Row | Variant | protein stability index
1 | QELEEEIKELYENQCKHNGSKNVF [F14Q] | 4.49
2 | QELEEEIKELYENYCKHNGSKNVF [F14Y] | 3.53
3 | QELEEEIKELYENWCKHNGSKNVF [F14W] | 2.58
4 | QELEEEIKELYENHCKHNGSKNVF [F14H] | 4.07
5 | QELEEEIKELYENECKHNGSKNVF [F14E] | 5.25
6 | QELEEEIKELYENACKHNGSKNVF [F14A] | 4.29
7 | QELEEEIKELYENMCKHNGSKNVF [F14M] | 4.06
8 | QELEEEIKELYENGCKHNGSKNVF [F14G] | 4.42
9 | QELEEEIKELYENNCKHNGSKNVF [F14N] | 4.55
10 | QELEEEIKELYENVCKHNGSKNVF [F14V] | 3.53
11 | QELEEEIKELYENKCKHNGSKNVF [F14K] | 4.5
12 | QELEEEIKELYENDCKHNGSKNVF [F14D] | 4.46
13 | QELEEEIKELYENRCKHNGSKNVF [F14R] | 4.1
14 | QELEEEIKELYENPCKHNGSKNVF [F14P] | 4.37
15 | QELEEEIKELYENCCKHNGSKNVF [F14C] | 3.75
16 | QELEEEIKELYENSCKHNGSKNVF [F14S] | 4.58
17 | QELEEEIKELYENTCKHNGSKNVF [F14T] | 3.69
18 | QELEEEIKELYENICKHNGSKNVF [F14I] | 3.16
19 | QELEEEIKELYENLCKHNGSKNVF [F14L] | 3.27
20 | QELEEEIKELYENFGKHNGSKNVF [C15G] | 4.07
21 | QELEEEIKELYENFSKHNGSKNVF [C15S] | 3.89
22 | QELEEEIKELYENFAKHNGSKNVF [C15A] | 3.86
23 | QELEEEIKELYENFFKHNGSKNVF [C15F] | 3.03
24 | QELEEEIKELYENFIKHNGSKNVF [C15I] | 2.07

Row | Variant | protein stability index
25 | QELEEEIKELYENFRKHNGSKNVF [C15R] | 3.3
26 | QELEEEIKELYENFLKHNGSKNVF [C15L] | 1.97
27 | QELEEEIKELYENFHKHNGSKNVF [C15H] | 4.12
28 | QELEEEIKELYENFNKHNGSKNVF [C15N] | 3.97
29 | QELEEEIKELYENFEKHNGSKNVF [C15E] | 3.86
30 | QELEEEIKELYENFVKHNGSKNVF [C15V] | 2.27
31 | QELEEEIKELYENFWKHNGSKNVF [C15W] | 3.73
32 | QELEEEIKELYENFKKHNGSKNVF [C15K] | 3.49
33 | QELEEEIKELYENFMKHNGSKNVF [C15M] | 2.02
34 | QELEEEIKELYENFTKHNGSKNVF [C15T] | 3.5
35 | QELEEEIKELYENFDKHNGSKNVF [C15D] | 4.08
36 | QELEEEIKELYENFPKHNGSKNVF [C15P] | 3.91
37 | QELEEEIKELYENFQKHNGSKNVF [C15Q] | 3.67
38 | QELEEEIKELYPNFCKHNGSKNVF [E12P] | 3.31
39 | QELEEEIKELYVNFCKHNGSKNVF [E12V] | 2.42
40 | QELEEEIKELYANFCKHNGSKNVF [E12A] | 2.37
41 | QELEEEIKELYHNFCKHNGSKNVF [E12H] | 2.81
42 | QELEEEIKELYYNFCKHNGSKNVF [E12Y] | 2.03
43 | QELEEEIKELYCNFCKHNGSKNVF [E12C] | 2.35
44 | QELEEEIKELYKNFCKHNGSKNVF [E12K] | 2.67
45 | QELEEEIKELYMNFCKHNGSKNVF [E12M] | 2.41
46 | QELEEEIKELYSNFCKHNGSKNVF [E12S] | 3.13
47 | QELEEEIKELYQNFCKHNGSKNVF [E12Q] | 2.39
48 | QELEEEIKELYLNFCKHNGSKNVF [E12L] | 2.12

Row | Variant | protein stability index
49 | QELEEEIKELYNNFCKHNGSKNVF [E12N] | 2.53
50 | QELEEEIKELYFNFCKHNGSKNVF [E12F] | 2.56
51 | QELEEEIKELYINFCKHNGSKNVF [E12I] | 2.27
52 | QELEEEIKELYRNFCKHNGSKNVF [E12R] | 2.19
53 | QELEEEIKELYTNFCKHNGSKNVF [E12T] | 2.83
54 | QELEEEIKELYDNFCKHNGSKNVF [E12D] | 2.89
55 | QELEEEIKELYGNFCKHNGSKNVF [E12G] | 3.27
56 | QELEEEIKELYWNFCKHNGSKNVF [E12W] | 1.98
57 | QELEEEIFELYENFCKHNGSKNVF [K8F] | 2.48
58 | QELEEEIEELYENFCKHNGSKNVF [K8E] | 3.63
59 | QELEEEILELYENFCKHNGSKNVF [K8L] | 2.24
60 | QELEEEIAELYENFCKHNGSKNVF [K8A] | 2.96
61 | QELEEEIYELYENFCKHNGSKNVF [K8Y] | 2.37
62 | QELEEEIRELYENFCKHNGSKNVF [K8R] | 2.24
63 | QELEEEINELYENFCKHNGSKNVF [K8N] | 2.45
64 | QELEEEIIELYENFCKHNGSKNVF [K8I] | 2.36
65 | QELEEEIDELYENFCKHNGSKNVF [K8D] | 3.41
66 | QELEEEIMELYENFCKHNGSKNVF [K8M] | 2.53
67 | QELEEEIGELYENFCKHNGSKNVF [K8G] | 3.67
68 | QELEEEISELYENFCKHNGSKNVF [K8S] | 3.37
69 | QELEEEIHELYENFCKHNGSKNVF [K8H] | 2.86
70 | QELEEEIPELYENFCKHNGSKNVF [K8P] | 4.37
71 | QELEEEIWELYENFCKHNGSKNVF [K8W] | 2.68
72 | QELEEEIVELYENFCKHNGSKNVF [K8V] | 3.19

Row | Variant | protein stability index
73 | QELEEEICELYENFCKHNGSKNVF [K8C] | 3.01
74 | QELEEEITELYENFCKHNGSKNVF [K8T] | 3.31
75 | QELEEEIQELYENFCKHNGSKNVF [K8Q] | 3.01
76 | QELEEEIKELYEAFCKHNGSKNVF [N13A] | 1.72
77 | QELEEEIKELYEPFCKHNGSKNVF [N13P] | 3.73
78 | QELEEEIKELYESFCKHNGSKNVF [N13S] | 2.6
79 | QELEEEIKELYELFCKHNGSKNVF [N13L] | 1.83
80 | QELEEEIKELYEYFCKHNGSKNVF [N13Y] | 2.34
81 | QELEEEIKELYEKFCKHNGSKNVF [N13K] | 2.15
82 | QELEEEIKELYEMFCKHNGSKNVF [N13M] | 1.79
83 | QELEEEIKELYEWFCKHNGSKNVF [N13W] | 2.37
84 | QELEEEIKELYEDFCKHNGSKNVF [N13D] | 3.15
85 | QELEEEIKELYEVFCKHNGSKNVF [N13V] | 2.89
86 | QELEEEIKELYECFCKHNGSKNVF [N13C] | 2.26
87 | QELEEEIKELYEQFCKHNGSKNVF [N13Q] | 2.13
88 | QELEEEIKELYEHFCKHNGSKNVF [N13H] | 2.83
89 | QELEEEIKELYEIFCKHNGSKNVF [N13I] | 2.13
90 | QELEEEIKELYEGFCKHNGSKNVF [N13G] | 3.76
91 | QELEEEIKELYEFFCKHNGSKNVF [N13F] | 2.72
92 | QELEEEIKELYERFCKHNGSKNVF [N13R] | 2.55
93 | QELEEEIKELYETFCKHNGSKNVF [N13T] | 2.86
94 | QELEEEIKELYEEFCKHNGSKNVF [N13E] | 2.11
